19 sequences from the DeepSol protein solubility set can be followed below.

The data set can be described thus: soluble on expression in E. coli; label from the status in PepcDB or PDB records.
In the case of “MGSDKIHHHHHHMSLRPYREIARRKSRQIHVGSVAVGGDAPISVQTMTNTLTTDVKGTLEQIRRAADAGADLVRVSCPDEDSTKAFKQIAKESPVPLIADIHFHYKRGIEAAEAGAACLRINPGNIGSHERVREVVKAAKDHGCSMRIGVNAGSLDKHLLDKYGEPCPEALVESALEHAKLLEDNDFFEFKIAVKASDVFLAVAAYQGLAKACDYPLHLGITEAGGLIGGTVKSSIGIGSLLWQGIGDTLRVSLSADVTEEVKVGFEMLKALDLRHRGVRIVSCPSCARQGFDVIKTVETLENRLSHVRAPVTLSILGCVVNGPGEARETMVGITGGGSDNHKVYIGGSPDHNVDGKSMVDHIVELVEARAAEIEAAKAGGK”, the “soluble on expression in E. coli” value was “not soluble”. With “MSELQNPKPSSLSRDAFIATYADIYEHSPWVAEQAFNQDAGPELDQLDTLHARLSDILLNATHAQQLALINAHPDLAGKAAVKGELTQASTDEQAGAGIHLCTPDEFQRFTELNGAYKARFGFPFIMAVKGSDRHKILAAFEQRIHHSPEAEFACALAEINKIALFRLQALHASQAAAALEHHHHHH” the entry was “soluble”; with “MGSDKIHHHHHHMRLRRLPVYVDAYKEKPNAEIFIYYSSRGTGKTYDIATVNLERKFSADGGDTLAIRKKKNKTTQSIHKEILELLSIYNLRKFFNISKAKIESKSLIFGKKRAFVFEGGHDTRDLKSYAHFKDLWLEEANQFSADDIEMLVPTMREQGGRIYMSSNPVPKSHWLYKRYLSNQDNPAVCIIKSTYRDNPFLNGGDVQAWLEKQRLAYHGNDIGFRIEVLGEEFDFGTARLIKKFNVCGPEILSRANGSYYTGIHVKGNRICFLEILVGRISYLPVVIITNACSKVLLSKTDYQSEINKFKGVFVLPTAREELKYVFSRFGRGTLLAKKRNLYSLSDYLIPSNLNVVNKPETTDVISEFNETEYYYDESSAEDSEVTNFVMQKDLVYIPAFLNAISVFS”, “not soluble”. With “MGHHHHHHSHIHRIDSTEVIYQPRRKRAKLIGKYLMGDLLGEGSYGKVKEVLDSETLCRRAVKILKKKKLRRIPNGEANVKKEIQLLRRLRHKNVIQLVDVLYNEEKQKMYMVMEYCVCGMQEMLDSVPEKRFPVCQAHGYFCQLIDGLEYLHSQGIVHK” the entry was “soluble”; with “MAKRIKNTTPKQDGFRMPGEFEKQKQIWMLWPWRNDNWRLGAKPAQKAFLEVAEAISEFEPVSLCVPPLQYENALARVSELGSHNIRIIEMTNDDAWIRDCGPTFLVNDKGDLRAVDWEFNAWGGLVDGLYFPWDQDALVARKVCEIEGVDSYKTKDFVLEGGSIHVDGEGTVLVTEMCLLHPSRNPHLTKEDIEDKLKDYLNCVKVLWVKDGIDPYETNGHIDDVACFIRPGEVACIYTDDKEHPFYQEAKAAYDFLSQQTDAKGRPLKVHKMCVTKEPCYLQEAATIDYVEGSIPREEGEMAIASYLNFLIVNGGIILPQYGDENDQLAKQQVQEMFPDRKVVGVRTEEIAYGGGNIHCITQQQPATLEHHHHHH”, “soluble”; with “GRLDHNVEAAMGDETKYARINANRSVSNDYQDGNGDSVHSSWERWNADLALGWKPTQDSWIELKGGKGNGEAAYAGRTMDGTQFQRESLGLHAEQKNLTDVIKKVEAQVDYSYNDHIMDNYKMRTPPMMPMAMEVTRRTLNARAAITTEWDRLNVISGVDSQRNKHAGNMYMRDANPIPPLDGDLRFESYGAFSEWTYRLNP”, “not soluble”. Then “MPQSLISELHTQYAQFVRKHPHAERDFSDALEDVLTDAGLTYDRVSARIKDWHSLKTKARKKNAQGAFIYPHPWDDVHDIIGVRITTLHSTEIPQIIEALADVFTVERSVDKTALTRISGSFGYGSHHLILKIDDRVKDLNNYVGMVFEVQIRTVLQHAWAEFEHDIRYKRSGDLDPQIDRAFTLAAGLIELADQQFDLIAAIQEPQKHSPNLEVDITAETLPGVIAMLVGSRFPQSRSEHYRWLEELLFAHSITTAAQLKELLNDRDIEAVRKALNYKFKPGQVRIIDDLLLYRYGTKHIEATGETGKNPRLRLPRLNERLRILNKHAPRNRSDLQQS”, with “not soluble”; and “MSLETTHSFGDRAVFAFGKHTGKIFKYAPRVLKDQDPEDLHQLRVGVRRLRTAVIGFMPAVQLPQGITERKIGKIGQQLGVQRDNDVLQEILLHKYLPHLPTSEQGCLEKVLKRLQKERKQAFKATYKLLTHDKFTQFKQSWEIWLEHPHFTSLGGLAIADVLPDLLLPQLSQFFLHPGWLVGTEIDPDTNSSNRQRRCIDLSPTAIETLLDGEESILHDLRKEAKRTRYQMELFSDYFGEEYQQLLAQVKMTQEILGNLQDSFVLRAMVEQYLDVDLKQLCPQWSAIFHGDRLGYWDQWQPLQSQFIDPVYRHHCRQLVQNPLVNSDQPTSSNLEGHHHHHH”, with “soluble”. Regarding “MSLDNINHILSKELGISLKQVTSVIEMLDEGNTVPFIARYRKERTGGLTDEVLRKFNERLTYLRNLESRKEDVLRIIEEQEKLTPELKLKIEKATTLTEIEDIYRPFKAKKRTRATMAVEKGLKPLAELILSGEFNGDIVEEANKYINEEKGVKNEEEALQGAMDIISEIISDNADYRKWIRNFVQKDGIIQVKGSSEEQTPYEMYYDYKEPVRTIPSHRILAINRGEKEKILSVKVTCNDDKIIDYLNKKVLKENKITDKYLEESIKDSFKRLIYPSIEREIRSELTSKGEEGAIDIFKANLKALLMQAPIKGKVVMGFDPGFRTGCKVAILDETGKFVENTTVYPTAPQNRIDETISTLKKLIKKHGVQVISLGNGTASRESEEVIAKMLKEIKDETGKELFYVIVSEAGASVYSASELANKEYPDLDVTVRGAISIGRRLQDPLAELVKIDPKAIGVGQYQHDVTQKKLDESLAGIVEDCVNNVGVDLNIATPSLLSYISGINASIAKNIVDYREENGKFKSRKELLKVKRLGQKAYEQCAGFLRVMESKEALDNTSVHPESYKVAKELIKTLGYTEEDEGHHHHHH”, the “soluble on expression in E. coli” value is recorded as “soluble”. For “MSLRITRIRLYKTDLPYVDGSYGWGAGNAITVARASVVVIDTDAGLQGCGEFTPCGENYMIAHSEGVDAFARLAAPQLLGQDPRQVARMERLMDHLVQGHGYAKAPFDAAFWDILGQATGQPVWMLLGGKLCDGAPMYRVAPQRSEAETRAELARHRAAGYRQFQIKVGADWQSDIDRIRACLPLLEPGEKAMADANQGWRVDNAIRLARATRDLDYILEQPCRSYEECQQVRRVADQPMKLDECVTGLHMAQRIVADRGAEICCLKISNLGGLSKARRTRDFLIDNRMPVVAEDSWGGEIASAAVAHFAASTPEEFLINSTDLMNYNTRSTGLGGPTVHQGRLYASDTPGLGVTPDFNSLGAPVADWALPEGHHHHHH”, the “soluble on expression in E. coli” value is listed as “soluble”. “MSGKRISREKLTIKKMIDLYQAKCPQASAEPEHYEALFVYAQKRLDKCVFGEEKPACKQCPVHCYQPAKREEMKQIMRWAGPRMLWRHPILTVRHLIDDKRPVPELPEKYRPKKPRE”: the “soluble on expression in E. coli” value is recorded as “not soluble”.

For the sequence “MQDFKKLPTVLTAEELIDKIFRRAARVEGRNPKEKALNKLATISNVSRDYFGKIIGAHPSYENLPDFYREMVDVVVGIRQLKKSLVALKWADGMIQKVVSRAVREVKGGKNPSAVVKSAYGRVASIIEQIDDELRFLNDAKNRMREIPILQDLPTIVVAGYPNVGKSSLVARISTVKPEVASYPFTTKKINLGFAEFAGKRVQIIDTPGLLDRPLSKRNRIERRAVLALKHLADIILFVIDPTETCGYSLEKQLSLLEEIKGYFAKPTVEVYSKADMHDRRDRQAYSAVTGEGIDELIKEIEKMVKIHSQTSTVIAPSGQTSTQEQHSAAALEHHHHHH”, the “soluble on expression in E. coli” value is given as “not soluble”. With “MPEAWIVEAVRTPIGKHGGALASVRPDDLLAHALSVLVDRSGVPKEEVEDVYAGCANQAGEDNRNVARMALLLAGFPVEVAGCTVNRLCGSGLEAVAQAARAIWAGEGKVYIGSGVESMSRAPYAVPKPERGFPTGNLVMYDTTLGWRFVNPKMQALYGTESMGETAENLAEMYGIRREEQDRFALLSHQKAVRAWEEGRFQDEVVPVPVKRGKEEILVEQDEGPRRDTSLEKLAALRPVFREGGTVTAGNSSPLNDGAAAVLLVSDDYAKAHGLRPLARVRAIAVAGVPPRIMGIGPVPATRKALERAGLSFSDLGLIELNEAFAAQALAVLREWSLSMEDQRLNPNGGAIALGHPLGASGARILTTLVHEMRRRKVQFGLATMCIGVGQGIAVVVEGMG” the entry was “soluble”. With “GPGSMSKYANPDYWEERYRSNDTTFDWYLTFDNLEPVLRPMLQPAEQIHVLVVGCGNSRLSPCMYEHLNVRKITNVDVSPTVISQMTRRYKGMDEMRWICCDLIHTAPDKLLTLLCPEDALFDFVIDKGLVDATLGGSNSFHNLYTLTKNLARVMKNGGRFLSVSYGAPETRIDHFRRRKLNFDVEHRTIEKSVFASGAAPTGSYHVYIMTKLGERQAVTAGAADDGALSGDTDDDDDFYDRFMTKANTTSADAARFD” the entry was “soluble”; with “NLNSIQNFGAIDILCTDKTGTLTQDKVVLEYHLNVNGEDDTRVLRHAYLNSYFQTGYKNLMDLAIIHKTEEEEAADSRLIDLSENYVKVDEIPFDFTRRRLTTVVQDNKGKTQMVTKGAVEEMLSICAFAECNGGVQPLTDDVRYRILETVDNLNDKGFRVLAIAQKSNPSPIGAFGVKDECDMVLIGYLAFLDP”, “not soluble”. In the case of “MSLFPNYEFSFRPIARKFVRSLVTSHGIWEVREAIILRLTDTTGKVGWGEIAPISWFGSETLAQALDFCRQLPEEITQEIIFSIPDDLPACQFGFESALEAMGSGEDVTITNAQFSALLPAGEAALHQWQSLWDEGYRTFKWKIAVGEVAQELRIFDSLTQILPASAKLRLDANGGLSYPEAHLWLQACDNLPVEVEFIEQPLPVEQFSQMLELSEAYPTAIALDESVANLKQLAACYAQGWRDVFVIKPAIAGSPSRLRQFCQQHEIDAVFSSVFETAIARKASLQLAAELSRDNRAVGFGVNHLFHQEAENWLQSLWNNPEGHHHHHH”, the “soluble on expression in E. coli” value is reported as “soluble”.

On to “MEQRRVTDFFARRRPGPPRIAPPKLACRTPSPARPALRAPASATSGSRKRARPPAAPGRDQARPPARRRLRLSVDEVSSPSTPEAPDIPACPSPGQKIKKSTPAAGQPPHLTSAQDQDTISELASCLQRARELGARVRALKASAQDAGESCTPEAEGRPEEPCGEKAPAYQRFHALAQPGLPGLVLPYKYQVLAEMFRSMDTIVGMLHNRSETPTFAKVQRGVQDMMRRRFEERNVGQIKTVYPASYRFRQERSVPTFKDGTRRSDYQLTIEPLLEQEADGAAPQLTASRLLQRRQIFSQKLVEHVKEHHKAFLASLSPAMVVPEDQLTRWHPRFNVDEVPDIEPAALPQPPATEKLTTAQEVLARARNLISPRMEKALSQLALRSAAPSSPGSPRPALPATPPATPPAASPSALKGVSQDLLERIRAKEAQKQLAQMTRCPEQEQRLQRLERLPELARVLRSVFVSERKPALSMEVACARMVGSCCTIMSPGEMEKHLLLLSELLPDWLSLHRIRTDTYVKLDKAADLAHITARLAHQTRAEEGL”, for which the “soluble on expression in E. coli” value is “soluble”. Then “AHHHHHHGSNAVEIISREISPTLDIQTKILEYMTDFFVKEGFKWLLPVIISPITDPLWPDPAGEGMEPAEVEIYGVKMRLTHSMILHKQLAIAMGLKKIFVLSPNIRLESRQKDDGRHAYEFTQLDFEVERAKMEDIMRLIERLVYGLFRKAEEWTGREFPKTKRFEVFEYSEVLEEFGSDEKASQEMEEPFWIINIPREFYDREVDGFWRNYDLILPYGYGEVASGGEREWEYEKIVAKIRKAGLNEDSFRPYLEIAKAGKLKPSAGAGIGVERLVRFIVGAKHIAEVQPFPRIPGIPAVI”, with “soluble”; and “KLRQWLIDQIDSGKYPGLVWENEEKSIFRIPWKHAGKQDYNREEDAALFKAWALFKGKFREGIDKPDPPTWKTRLRCALNKSNDFEELVERSQLDISDPYKVYRIVPE”, with “soluble”.
